Measured values from PMC4259341.

Assay: western blot of conditioned medium, 24 h
Conditions: glycan lost; control: wild type

With antithrombin: S137A the expression_or_secretion was “no change”.
In the case of antithrombin: S137T, the expression_or_secretion is reported as “no change”.
